Laboratory results taken from paper PMC2213037.

Biological target: Syk tyrosine kinase (mouse (endogenous in NMuMG)) (UniProt P48025)
Experiment: co-IP

Sequence of Syk tyrosine kinase (mouse (endogenous in NMuMG)) (P48025 whole entry): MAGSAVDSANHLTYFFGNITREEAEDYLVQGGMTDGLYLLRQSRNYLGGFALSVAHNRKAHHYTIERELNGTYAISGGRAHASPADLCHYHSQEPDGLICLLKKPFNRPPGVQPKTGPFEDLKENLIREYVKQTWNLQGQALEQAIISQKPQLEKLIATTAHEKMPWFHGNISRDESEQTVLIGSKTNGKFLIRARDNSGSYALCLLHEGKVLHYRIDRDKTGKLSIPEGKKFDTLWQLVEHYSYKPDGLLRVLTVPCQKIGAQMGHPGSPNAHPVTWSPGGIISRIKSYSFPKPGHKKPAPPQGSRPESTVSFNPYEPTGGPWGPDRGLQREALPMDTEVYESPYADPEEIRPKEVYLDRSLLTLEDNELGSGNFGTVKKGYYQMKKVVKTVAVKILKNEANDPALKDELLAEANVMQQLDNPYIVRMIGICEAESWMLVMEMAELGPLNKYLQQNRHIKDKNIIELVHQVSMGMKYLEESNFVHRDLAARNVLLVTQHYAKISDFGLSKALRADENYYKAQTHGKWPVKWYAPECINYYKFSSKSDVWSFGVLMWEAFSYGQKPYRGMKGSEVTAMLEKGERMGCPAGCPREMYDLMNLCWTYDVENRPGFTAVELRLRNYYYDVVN
Sequence of MMTV Env surface unit (SU, gp52) (P03374 99-688): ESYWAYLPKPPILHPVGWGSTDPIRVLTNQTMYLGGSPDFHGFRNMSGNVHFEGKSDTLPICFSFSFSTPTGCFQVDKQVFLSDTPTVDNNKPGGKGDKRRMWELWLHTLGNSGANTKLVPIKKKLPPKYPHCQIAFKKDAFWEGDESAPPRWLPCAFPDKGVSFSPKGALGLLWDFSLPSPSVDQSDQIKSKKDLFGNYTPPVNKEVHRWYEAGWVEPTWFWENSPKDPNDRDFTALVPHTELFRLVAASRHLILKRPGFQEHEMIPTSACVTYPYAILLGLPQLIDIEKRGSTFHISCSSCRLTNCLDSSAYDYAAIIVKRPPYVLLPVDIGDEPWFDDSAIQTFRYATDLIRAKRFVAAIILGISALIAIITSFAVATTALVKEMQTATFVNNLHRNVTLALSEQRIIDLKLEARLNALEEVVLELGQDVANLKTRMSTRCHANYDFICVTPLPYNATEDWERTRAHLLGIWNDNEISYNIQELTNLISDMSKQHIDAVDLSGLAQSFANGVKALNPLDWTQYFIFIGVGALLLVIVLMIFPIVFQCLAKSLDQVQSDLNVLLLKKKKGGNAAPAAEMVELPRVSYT

With “MMTV Env surface unit (SU, gp52) (from UniProt P03374 99-454) (natural protein)” the percent of SU coprecipitated with Syk was < 34%.
